{"source": "patent US20210206825A1", "about": "(published 2021)", "data": [{"molecular_target": "T1, recombinant human c-Met Fc chimera (human, UniProt P08581 16-932)", "T1 construct": "also called c-Met-Fc fusion protein; c-Met extracellular domain; not shown: Fc", "experiment": "SPR", "text": "Serine was chosen to decrease the hydrophobicity of the resulting mutants. […] Fold change indicates fold change of the KD value of a variant when compared to the parent P114AR7P95-A3.", "units": {"Kd": "nM", "Fold Change of KD vs parent": "fold", "koff": "s⁻¹", "kon": "M⁻¹ s⁻¹"}, "values": [{"binder": "ECB15 (SEQ ID NO: 145) (designed binder, kept as two constructs; also called ECB15 without Met; not shown: C-terminal poly-histidine tag) LPAPKNLVVSEVTEDSARLSWDDPWAFYESFLIQYQESEKVGEAIVLTVPGSERSYDLTGLKPGTEYTVSIYGVHNVYKDTNMRGLPLSAIFTTAPAPAPAPAPLPAPKNLVVSRVTEDSARLSWTAPDAAFDSFWIRYFEFLGSGEAIVLTVPGSERSYDLTGLKPGTEYVVNIMGVKGGKISPPLSAIFTT", "Kd": 0.4}, {"binder": "A3 I79S (designed binder, In the context of ECB15; built as m66; not shown: C-terminal poly-histidine tag) LPAPKNLVVSEVTEDSARLSWDDPWAFYESFLIQYQESEKVGEAIVLTVPGSERSYDLTGLKPGTEYTVSIYGVHNVYKDTNMRGLPLSAIFTTAPAPAPAPAPLPAPKNLVVSRVTEDSARLSWTAPDAAFDSFWIRYFEFLGSGEAIVLTVPGSERSYDLTGLKPGTEYVVNIMGVKGGKSSPPLSAIFTT", "binding result": "no binding"}, {"binder": "A3 V68S (designed binder, In the context of ECB15; built as m66; not shown: C-terminal poly-histidine tag) LPAPKNLVVSEVTEDSARLSWDDPWAFYESFLIQYQESEKVGEAIVLTVPGSERSYDLTGLKPGTEYTVSIYGVHNVYKDTNMRGLPLSAIFTTAPAPAPAPAPLPAPKNLVVSRVTEDSARLSWTAPDAAFDSFWIRYFEFLGSGEAIVLTVPGSERSYDLTGLKPGTEYSVNIMGVKGGKISPPLSAIFTT", "Fold Change of KD vs parent": 9, "Kd": 3.6, "koff": 0.0012, "kon": 329000}, {"binder": "A3 L39S (designed binder, In the context of ECB15; built as m66; not shown: C-terminal poly-histidine tag) LPAPKNLVVSEVTEDSARLSWDDPWAFYESFLIQYQESEKVGEAIVLTVPGSERSYDLTGLKPGTEYTVSIYGVHNVYKDTNMRGLPLSAIFTTAPAPAPAPAPLPAPKNLVVSRVTEDSARLSWTAPDAAFDSFWIRYFEFSGSGEAIVLTVPGSERSYDLTGLKPGTEYVVNIMGVKGGKISPPLSAIFTT", "Fold Change of KD vs parent": 6.75, "Kd": 2.7, "koff": 0.00127, "kon": 475000}, {"binder": "A3 F38S (designed binder, In the context of ECB15; built as m66; not shown: C-terminal poly-histidine tag) LPAPKNLVVSEVTEDSARLSWDDPWAFYESFLIQYQESEKVGEAIVLTVPGSERSYDLTGLKPGTEYTVSIYGVHNVYKDTNMRGLPLSAIFTTAPAPAPAPAPLPAPKNLVVSRVTEDSARLSWTAPDAAFDSFWIRYFESLGSGEAIVLTVPGSERSYDLTGLKPGTEYVVNIMGVKGGKISPPLSAIFTT", "Fold Change of KD vs parent": 1790, "Kd": 717, "koff": 0.0323, "kon": 45100}, {"binder": "A3 M72S (designed binder, In the context of ECB15; built as m66; not shown: C-terminal poly-histidine tag) LPAPKNLVVSEVTEDSARLSWDDPWAFYESFLIQYQESEKVGEAIVLTVPGSERSYDLTGLKPGTEYTVSIYGVHNVYKDTNMRGLPLSAIFTTAPAPAPAPAPLPAPKNLVVSRVTEDSARLSWTAPDAAFDSFWIRYFEFLGSGEAIVLTVPGSERSYDLTGLKPGTEYVVNISGVKGGKISPPLSAIFTT", "binding result": "no binding"}, {"binder": "A3 G40S (designed binder, In the context of ECB15; built as m66; not shown: C-terminal poly-histidine tag) LPAPKNLVVSEVTEDSARLSWDDPWAFYESFLIQYQESEKVGEAIVLTVPGSERSYDLTGLKPGTEYTVSIYGVHNVYKDTNMRGLPLSAIFTTAPAPAPAPAPLPAPKNLVVSRVTEDSARLSWTAPDAAFDSFWIRYFEFLSSGEAIVLTVPGSERSYDLTGLKPGTEYVVNIMGVKGGKISPPLSAIFTT", "Fold Change of KD vs parent": 4.25, "Kd": 1.7, "koff": 0.00032, "kon": 185000}, {"binder": "A3 R34S (designed binder, In the context of ECB15; built as m66; not shown: C-terminal poly-histidine tag) LPAPKNLVVSEVTEDSARLSWDDPWAFYESFLIQYQESEKVGEAIVLTVPGSERSYDLTGLKPGTEYTVSIYGVHNVYKDTNMRGLPLSAIFTTAPAPAPAPAPLPAPKNLVVSRVTEDSARLSWTAPDAAFDSFWISYFEFLGSGEAIVLTVPGSERSYDLTGLKPGTEYVVNIMGVKGGKISPPLSAIFTT", "binding result": "no binding"}, {"binder": "A3 P81S (designed binder, In the context of ECB15; built as m66; not shown: C-terminal poly-histidine tag) LPAPKNLVVSEVTEDSARLSWDDPWAFYESFLIQYQESEKVGEAIVLTVPGSERSYDLTGLKPGTEYTVSIYGVHNVYKDTNMRGLPLSAIFTTAPAPAPAPAPLPAPKNLVVSRVTEDSARLSWTAPDAAFDSFWIRYFEFLGSGEAIVLTVPGSERSYDLTGLKPGTEYVVNIMGVKGGKISSPLSAIFTT", "Fold Change of KD vs parent": 4.25, "Kd": 1.7, "koff": 0.000536, "kon": 321000}, {"binder": "A3 K78S (designed binder, Tested in the context of bispecific ECB15; not shown: C-terminal poly-histidine tag) LPAPKNLVVSEVTEDSARLSWDDPWAFYESFLIQYQESEKVGEAIVLTVPGSERSYDLTGLKPGTEYTVSIYGVHNVYKDTNMRGLPLSAIFTTAPAPAPAPAPLPAPKNLVVSRVTEDSARLSWTAPDAAFDSFWIRYFEFLGSGEAIVLTVPGSERSYDLTGLKPGTEYVVNIMGVKGGSISPPLSAIFTT", "Fold Change of KD vs parent": 0.75, "Kd": 0.3, "koff": 0.00015, "kon": 440000}, {"binder": "A3 N70S (designed binder, In the context of ECB15; built as m66; not shown: C-terminal poly-histidine tag) LPAPKNLVVSEVTEDSARLSWDDPWAFYESFLIQYQESEKVGEAIVLTVPGSERSYDLTGLKPGTEYTVSIYGVHNVYKDTNMRGLPLSAIFTTAPAPAPAPAPLPAPKNLVVSRVTEDSARLSWTAPDAAFDSFWIRYFEFLGSGEAIVLTVPGSERSYDLTGLKPGTEYVVSIMGVKGGKISPPLSAIFTT", "Fold Change of KD vs parent": 14.8, "Kd": 5.9, "koff": 0.00249, "kon": 425000}, {"binder": "A3 F36S (designed binder, In the context of ECB15; built as m66; not shown: C-terminal poly-histidine tag) LPAPKNLVVSEVTEDSARLSWDDPWAFYESFLIQYQESEKVGEAIVLTVPGSERSYDLTGLKPGTEYTVSIYGVHNVYKDTNMRGLPLSAIFTTAPAPAPAPAPLPAPKNLVVSRVTEDSARLSWTAPDAAFDSFWIRYSEFLGSGEAIVLTVPGSERSYDLTGLKPGTEYVVNIMGVKGGKISPPLSAIFTT", "Fold Change of KD vs parent": 68, "Kd": 27.2, "koff": 0.00512, "kon": 188000}, {"binder": "A3 W32S (designed binder, In the context of ECB15; built as m66; not shown: C-terminal poly-histidine tag) LPAPKNLVVSEVTEDSARLSWDDPWAFYESFLIQYQESEKVGEAIVLTVPGSERSYDLTGLKPGTEYTVSIYGVHNVYKDTNMRGLPLSAIFTTAPAPAPAPAPLPAPKNLVVSRVTEDSARLSWTAPDAAFDSFSIRYFEFLGSGEAIVLTVPGSERSYDLTGLKPGTEYVVNIMGVKGGKISPPLSAIFTT", "Fold Change of KD vs parent": 74.5, "Kd": 29.8, "koff": 0.0086, "kon": 289000}]}, {"molecular_target": "human EGFR on cells (human, UniProt P00533 25-1210)", "experiment": "cell-based or functional assay", "units": {"pEGFR inhibition in H292 cells (IC50)": "nM"}, "values": [{"binder": "ECB95 (designed binder, not shown: small tags and cut ends) MLPAPKNLVVSEVTEDSARLSWDDPWAFYESFLIQYQESEKVGEAIVLTVPGSERSYDLTGLKPGTEYTVSIYGVHNVYKDTNIRGLPLSAIFTTAPAPAPAPAPLPAPKNLVVSRVTEDSARLSWTAPDAAFDSFWIRYFEFVGSGEAIVLTVPGSERSYDLTGLKPGTEYVVNILGVKGGSISPPLSAIFTT", "pEGFR inhibition in H292 cells (IC50)": 13.6}, {"binder": "ECB15 (designed binder, not shown: small tags and cut ends) MLPAPKNLVVSEVTEDSARLSWDDPWAFYESFLIQYQESEKVGEAIVLTVPGSERSYDLTGLKPGTEYTVSIYGVHNVYKDTNMRGLPLSAIFTTAPAPAPAPAPLPAPKNLVVSRVTEDSARLSWTAPDAAFDSFWIRYFEFLGSGEAIVLTVPGSERSYDLTGLKPGTEYVVNIMGVKGGKISPPLSAIFTT", "pEGFR inhibition in H292 cells (IC50)": 4.2}, {"binder": "ECB106 (designed binder, not shown: small tags and cut ends) MLPAPKNLVVSEVTEDSARLSWDDPHAFYESFLIQYQESEKVGEAIVLTVPGSERSYDLTGLKPGTEYTVSIYGVHNVYKDTNIRGLPLSAIFTTAPAPAPAPAPLPAPKNLVVSRVTEDSARLSWTAPDAAFDSFWIRYFEFLGSGEAIVLTVPGSERSYDLTGLKPGTEYVVNILGVKGGKISPPLSAIFTT", "pEGFR inhibition in H292 cells (IC50)": 367}, {"binder": "ECB107 (designed binder, not shown: small tags and cut ends) MLPAPKNLVVSEVTEDSARLSWDDPHAFYESFLIQYQESEKVGEAIVLTVPGSERSYDLTGLKPGTEYTVSIYGVHNVYKDTNIRGLPLSAIFTTAPAPAPAPAPLPAPKNLVVSRVTEDSARLSWTAPDAAFDSFWIRYFEFVGSGEAIVLTVPGSERSYDLTGLKPGTEYVVNILGVKGGSISPPLSAIFTT", "pEGFR inhibition in H292 cells (IC50)": 812}, {"binder": "ECB97 (designed binder, not shown: small tags and cut ends) MLPAPKNLVVSEVTEDSARLSWDDPWAFYESFLIQYQESEKVGEAIVLTVPGSERSYDLTGLKPGTEYTVSIYGVHNVYKDTNIRGLPLSAIFTTAPAPAPAPAPLPAPKNLVVSRVTEDSARLSWTAPDAAFDSFWIRYFEFLGSGEAIVLTVPGSERSYDLTGLKPGTEYVVNILSVKGGSISPPLSAIFTT", "pEGFR inhibition in H292 cells (IC50)": 16.6}, {"binder": "ECB96 (designed binder, not shown: small tags and cut ends) MLPAPKNLVVSEVTEDSARLSWDDPWAFYESFLIQYQESEKVGEAIVLTVPGSERSYDLTGLKPGTEYTVSIYGVHNVYKDTNIRGLPLSAIFTTAPAPAPAPAPLPAPKNLVVSRVTEDSARLSWTAPDAAFDSFWIRYFEFVSKGDAIVLTVPGSERSYDLTGLKPGTEYVVNILGVKGGSISPPLSAIFTT", "pEGFR inhibition in H292 cells (IC50)": 24.7}, {"binder": "ECB109 (designed binder, not shown: small tags and cut ends) MLPAPKNLVVSEVTEDSARLSWDDPHAFYESFLIQYQESEKVGEAIVLTVPGSERSYDLTGLKPGTEYTVSIYGVHNVYKDTNIRGLPLSAIFTTAPAPAPAPAPLPAPKNLVVSRVTEDSARLSWTAPDAAFDSFWIRYFEFLGSGEAIVLTVPGSERSYDLTGLKPGTEYVVNILSVKGGSISPPLSAIFTT", "pEGFR inhibition in H292 cells (IC50)": 432}, {"binder": "ECB94 (designed binder, not shown: small tags and cut ends) MLPAPKNLVVSEVTEDSARLSWDDPWAFYESFLIQYQESEKVGEAIVLTVPGSERSYDLTGLKPGTEYTVSIYGVHNVYKDTNIRGLPLSAIFTTAPAPAPAPAPLPAPKNLVVSRVTEDSARLSWTAPDAAFDSFWIRYFEFLGSGEAIVLTVPGSERSYDLTGLKPGTEYVVNILGVKGGKISPPLSAIFTT", "pEGFR inhibition in H292 cells (IC50)": 5.1}, {"binder": "ECB108 (designed binder, not shown: small tags and cut ends) MLPAPKNLVVSEVTEDSARLSWDDPHAFYESFLIQYQESEKVGEAIVLTVPGSERSYDLTGLKPGTEYTVSIYGVHNVYKDTNIRGLPLSAIFTTAPAPAPAPAPLPAPKNLVVSRVTEDSARLSWTAPDAAFDSFWIRYFEFVSKGDAIVLTVPGSERSYDLTGLKPGTEYVVNILGVKGGSISPPLSAIFTT", "pEGFR inhibition in H292 cells (IC50)": 814}]}]}
